The values that follow come from paper PMC10387098.

Read-outs that look alike come from different tables or passages of the source.

The target in assay [1] is CRAF RBD-CRD-C2 (Homo sapiens) (UniProt P04049). Particulars: cited from earlier work.
Another assay addresses CRAF RBD (Homo sapiens) (UniProt P04049). The note with it: cited from earlier work.
Assay [2] deals with CRAF RBD-CRD (Homo sapiens) (UniProt P04049). Description: SPR. Particulars: cited from earlier work.
For assay [3] the target is unchanged. The note with it: cited from earlier work.
The target of assay [4] is KRAS4b residues 1–169 with N-terminal cysteine, Alexa Fluor 647-labeled, GMP-PNP-bound (UniProt P01116). As to the kind of experiment: MST; 10 μL of 5 nM Alexa Fluor 647-labeled GMP-PNP-bound KRAS mixed with 10 μL of serially diluted BRAF proteins (10 pM to 1 μM); 0.05% Tween-20; Monolith NT.115pico; three independent dilution series averaged.

As usually defined, the Kd is the concentration at which binding is half-saturated. With KRAS (from UniProt P01116), the Kd is 188 nM in assay [1], 21.2 nM with CRAF RBD (Homo sapiens), 188 nM in assay [2] and 190 nM in assay [3].
In the case of “BRAF/14-3-3 (full length, active dimer) (from UniProt P15056 1-766) (complex)”, in assay [4], the Kd was determined as 106 nM.
In turn, “BRAF/MEK/14-3-3 (autoinhibited), as used for MST (from UniProt P15056 1-766; Q02750 1-393) (complex)” registered a Kd in assay [4] of 127 nM.
